Experiments:
[1] = system: A. nidulans α-1,2-mannosidase IB; assay: Effect of EDTA, calcium and deoxymannojirimycin on enzyme activity; format: biochemical, Aspergillus nidulans; conditions: for effect of addition on enzyme activity: added to purified α-1,2-mannosidase IB
Method: (§1) FIG. 8: Biochemical characterization of purified A. nidulans α-1,2-mannosidase IB (A) and α-1,2-mannosidase IC (B) enzymes. Enzyme activity was assayed by digestion of the synthetic substrate Man-α1,2-Man-OCH3 at 37 °C for 3 hours. Released mannose was detected using a colorimetric glucose oxidase/horseradish peroxidase assay (see Materials and Methods) and measuring absorbance at […].
(§2) The α-mannosidase IB and IC expression vectors were introduced into the genome of A. nidulans strain T580 (ura-) by cotransformation and complementation with the pJR15 vector, which contained the selectable ura marker. It has been shown that when two plasmids are used simultaneously in the transformation of fungal protoplasts (cotransformation), as many as 60% of transformed protoplasts will integrate both of the plasmids into the genome (Wernars et al. 1987, Mol. Gen. Genet., 209: 71-77). Protoplasts were prepared according to the method of Fincham (1989, Microbiol. Rev., 53: 148-170), using Sigma Lysing Enzyme for cell wall digestion. Protoplasts of strain T580 (uridine auxotroph) were co-transformed with 1 μg of the selectable marker pJR15, which converts transformed cells to uridine prototrophy, and with 1 μg of either ANIBSEC or ANICSEC. Transformants were initially screened for integration of […] by selection on minimal media, and positive transformants were then transferred to individual complete media plates. Transformants were selected for prototrophy on uridine deficient minimal media and transferred to complete media plates. To confirm secretion of active recombinant α-1,2-mannosidase IB or IC into the culture media of putative transformants, specific activity assays were performed. After 60-65 hours of incubation, aliquots of culture media were assayed for α-1,2-mannosidase activity and compared to the non-transformed T580 strain. Total culture filtrate protein was precipitated and resuspended in assay buffer. Mannosidase assays were performed using the disaccharide Man-α-1,2-Man-OCH3 as a substrate in a coupled enzyme assay as described earlier (Scaman et al. 1996, Glycobiol., 6: 265-270), with some modifications. Digestion of the substrate was performed in a 30 μl final volume containing 10 mM sodium acetate/acetic acid buffer (pH 5.0) and 3 μl 100 mM disaccharide Man-α-1,2-Man-OCH3 incubated at 37° C. for 3 hours. Released mannose was detected by addition of 30 μl 1.25M Tris-HCl (pH7.6) and 240 μl of developing solution, containing glucose oxidase (55 U/ml), horseradish peroxidase (1 U/ml) and o-dianisidine dihydrochloride (70 μg/ml) followed by incubation at 37° C. for 3 hours. Absorbance measurements at 450 nm were used to determine final color change. A standard curve of free mannose concentrations was determined for comparison.

[2] = system: A. nidulans α-1,2-mannosidase IC; assay: as above; format: biochemical, Aspergillus nidulans; conditions: for effect of addition on enzyme activity: added to purified α-1,2-mannosidase IC
Method: as §1, §2

[3] = α-1,2-mannosidase specific activity assay of secreted recombinant enzymes (coupled enzyme assay); format: biochemical; conditions: purified enzyme; for optimal pH for highest activity: FIG. 8; for specific activity: non-limiting amounts of Man-α-1,2-Man-OCH3, 1 U = 1 nmol mannose per hour
Method: as §1
as §2, with “Digestion of the substrate was performed in a 30 μl final volume containing 10 mM sodium acetate/acetic acid buffer (pH 5.0) and 3 μl 100 mM disaccharide Man-α-1,2-Man-OCH3 incubated at 37° C. for 3 hours.” left out, “comparison. […] Protein concentrations were determined by the Bradford method (Bradford 1976, Anal. Biochem., 72: 248-254) and comparison to a bovine serum albumin (BSA) standard curve. […]” for “comparison.”

[4] = Digestion of Man9GlcNAc2, cleavage products by MALDI-TOF mass spectrometry; format: biochemical; conditions: for cleavage of Man9GlcNAc2 (substrate specificity): non-limiting conditions, about 100 ng enzyme, 10 pmol Man9GlcNAc2
Method: FIG. 9: Partial digestion of Man9GlcNAc2 (M9) with A. nidulans α-1,2-mannosidase IB (A) and A. nidulans α-1,2-mannosidase IC (B) by MALDI-TOF mass spectrometry. Peaks represent parent molecules ionized with sodium (M+Na+). Several different digestion products are produced in each reaction, including Man8GlcNAc2 (M8), Man7GlcNAc2 (M7), Man6GlcNAc2 (M6) and Man5GlcNAc2 (M5).
The substrate specificity of the α-1,2-mannosidase IB and IC from A. nidulans was determined by analyzing the cleavage products of Man9GlcNAc2 by MALDI-TOF mass spectrometry. Approximately 100 ng of either α-1,2-mannosidase IB or IC protein was used to digest 10 pmol of Man9GlcNAc2 (Sigma) in a final volume of 10 μl. Digestion products were analyzed by matrix assisted laser desorption ionization time of flight mass spectrometry (MALDI-TOF-MS) using a Voyager biospectrometry workstation (Applied Biosystems, Foster City Calif.). Samples were mixed in a 1:1 ratio with the matrix (10 mg/ml 2,5-dihydroxybenzoic acid; 50% acetonitrile) and 1 μl was loaded onto a sample plate for analysis. […] Accelerating voltage was 20000V and the grid voltage was set at 94%. Data were analyzed using Data Explorer software (Applied Biosystems, Foster City Calif.). […] This supports the classification of both the α-1,2-mannosidase IB and IC in subgroup 2.
The rate at which various intermediates were produced during the digestion of Man9GlcNAc2 to Man5GlcNAc2 was determined by analyzing the cleavage products during limited time-course experiments (FIG. 9). […] This led to the accumulation of Man7GlcNAc2 and Man6GlcNAc2 intermediates during the progress of the digestion, which were eventually converted to Man5GlcNAc2.

[5] = limited time-course experiments, FIG. 9

| Molecule | effect of addition on enzyme activity [1] | effect of addition on enzyme activity [2] | optimal pH for highest activity [3] | specific activity [3] | rate of digestion of Man9GlcNAc2 to intermediates [4, 5] | cleavage of Man9GlcNAc2 (substrate specificity) [4] | other results |
| --- | --- | --- | --- | --- | --- | --- | --- |
| O=C(O)CN(CCN(CC(=O)O)CC(=O)O)CC(=O)O [EDTA] | significantly reduced enzyme activity | significantly reduced enzyme activity |  |  |  |  |  |
| OC[C@H]1NC[C@@H](O)[C@@H](O)[C@@H]1O [deoxymannojirimycin] | significant decrease in activity | significant decrease in activity |  |  |  |  |  |
| [Ca+2] [calcium] |  |  |  |  |  |  | effect of addition on EDTA-reduced enzyme activity ([1]; added after EDTA, α-1,2-mannosidase IB): restored; effect of addition on EDTA-reduced enzyme activity ([2]; added after EDTA, α-1,2-mannosidase IC): restored |
| α-1,2-mannosidase IC: Class I α-1,2-mannosidase from A. nidulans (mnsIC, SEQ ID NO: 18), expressed from vector ANICSEC (protein, Aspergillus nidulans) MPRRWSSLISITAIFLVLFFLLHRNTDTPRAANRATNGPANGFARQQSICPSTPPQPPYNRTSTGGFNWGEIPVRYPVSDFIPLSTNSPATLPRIQRSSFPLQSSITKSRQAAVKGAFQRAWTSYTTHAWKADEVRPITAGSRNNFGGWGATLVDNLDTLLIMGLDEEFAAAVDALADIEFSPHSSPSSSQSTINIFETTIRYLGGLLAAYDLTGCRETRLLDKAIQLGEMIYTSFDTENRMPVPRWNLHKAGNGEPQRAAVQGVLAELASSSLEFTRLSQLTGDMRYFDAASRITDLLDSQAGHTRIPGLWPVSVNLQKGDLTRGSTFSFGGMADSAYEYLGKTYRLLGGVGKGPQYERLARNALDAGIRHLLFRPMTPDHADILLPGVAHATSSSVGLEPRTEHLACFVGGMYALAGKLFSNQTYLDTGRKLTDGCIWYYDNSPLGIMPEMFTVPACPSVAECPWDETRGGIYTYVRDGHYFLRPEAMESIFYMWRITGDEKYREAAWRMFTAIEAVTKTEFGNAAVRDVMVEEGNVKREDSMESFWMAETLKYLYLIFGETDLVSLDDWVFNTEAHPLRGAGS |  |  | 5.0 | 4.56 U/µg | rapidly degraded Man9GlcNAc2 to Man7GlcNAc2 | cleaved Man9GlcNAc2 completely and efficiently to a Man5GlcNAc2 structure | rate of conversion of Man7GlcNAc2 and Man6GlcNAc2 intermediates to Man5GlcNAc2 [4, 5]: more rapidly than the α-1,2-mannosidase IB enzyme |
| α-1,2-mannosidase IB: Class I α-1,2-mannosidase from A. nidulans (mnsIB, SEQ ID NO: 6), expressed from vector ANIBSEC (protein, Aspergillus nidulans) MRTLLALAAFAGFAAARVPATAITRPVMRSDSRADAVKEAFSHAWDGTTNTAFPHDELHPISNGTGDSRNHWGASAVDALSTAIMMRNATIVNQILDHIAAVDTSKTNAMVSLFETTIRTLAGMISGTDLLKGPAAGLVDDSRVDVLLEQSQNLAEVLKFAFDTPSGVPTNMINITSGGNDGATTNGLAVTGTLVLEWTRLSDLTGNDETARLSQRAEDTLLHPEPAQTEPFPGLIGSAVNIADGKLANGHISWNGGADSTTETLIKMTVTDPERFGLTRDRWVAAAESSINHLASHPSTRPDVTFLATTNEEHQLGLTSQHLTCFDGGSFLLGGTLLDRQDFVDFGLDLVAGCHETTNSTLTGIGPEQFSWDPNGVPDSQKELFERAGFTINSGQTILRPEVIESFTTAWRVTGDGTTLEWVWNAFTNINKTCRTATGFAGLENVNAANGGGRIDNQESFMFAEVLKTSFLTFAPEDDWQVQKGSGNTFVTNTEAHPFKVTTPQ |  |  | 5.0 | 7.52 U/μg | rapidly degraded Man9GlcNAc2 to Man7GlcNAc2 | cleaved Man9GlcNAc2 completely and efficiently to a Man5GlcNAc2 structure |  |

— patent US20050260627A1, “Mannosidases and methods for using same” (University of Victoria Innovation and Development …, priority 1999, published 2005)
